The term stoichiometry N denotes a count of units in the complex or per binding partner.

The series concerns the molecule itself. The experiment in a line: cryo-EM structure.

B1: human polycystin-2 (PC2), truncated construct Pro185 - Asp723 (domain or fragment, UniProt Q13563 185-723, looked up)
chain: PRVAWAERLVRGLRGLWGTRLMEESSTNREKYLKSVLRELVTYLLFLIVLCILTYGMMSSNVYYYTRMMSQLFLDTPVSKTEKTNFKTLSSMEDFWKFTEGSLLDGLYWKMQPSNQTEADNRSFIFYENLLLGVPRIRQLRVRNGSCSIPQDLRDEIKECYDVYSVSSEDRAPFGPRNGTAWIYTSEKDLNGSSHWGIIATYSGAGYYLDLSRTREETAAQVASLKKNVWLDRGTRATFIDFSVYNANINLFCVVRLLVEFPATGGVIPSWQFQPLKLIRYVTTFDFFLAACEIIFCFFIFYYVVEEILEIRIHKLHYFRSFWNCLDVVIVVLSVVAIGINIYRTSNVEVLLQFLEDQNTFPNFEHLAYWQIQFNNIAAVTVFFVWIKLFKFINFNRTMSQLSTTMSRCAKDLFGFAIMFFIIFLAYAQLAYLVFGTQVDDFSTFQECIFTQFRIILGDINFAEIEEANRVLGPIYFTTFVFFMFFILLNMFLAIINDTYSEVKSDLAQQKAEMELSDLIRKGYHKALVKLKLKKNTVD
Consider B1, for which the “stoichiometry N” value came out at 4.

Source of the values: doi:10.1101/589515 (bioRxiv, 2019).
